Test results: patent US20250268984A1, “INTERFERON-BASED CANCER TREATMENT METHOD, AND PHARMACEUTICAL COMBINATION” (XIAMEN AMOYTOP BIOTECH CO., LTD., priority 2021, published 2025)

System: transplanted liver cancer H22
Test: Example 13: different administration orders of interferon and gemcitabine, transplanted liver cancer H22 in mice
Assay type: in vivo, BALB/c mice
Conditions: PEG-mIFN-α4 only, 1 microgram per mouse s.c. once a week
Description: PEG-mIFN-α4 was administered by subcutaneous injection on the back of the neck, with a dose of 1 microgram per mouse. The administration began on the day after grouping. In the PEG-mIFN-α4 only group, PEG-mIFN-α4 was administered once a week. In the PEG-mIFN-α4 combined with gemcitabine (administered at the same time) group, PEG-mIFN-α4 and gemcitabine were administered on the same day, once a week. In the PEG-mIFN-α4 combined with gemcitabine (PEG-mIFN-α4 was administered 72 hours after gemcitabine) group, gemcitabine was given 3 days before PEG-mIFN-α4, once a week. PEG-mIFN-α4 combined with gemcitabine (gemcitabine was given 72 hours after PEG-mIFN-α4) group, PEG-mIFN-α4 was given first, and gemcitabine was given 3 days after, once a week. In the normal saline control group, an equal volume of normal saline was given. Gemcitabine was injected intraperitoneally at a dose of 60 mg/kg.
SAS 9.4 software was used to compare the differences in tumor incidence between groups, and the statistical tests were all two-sided tests.
The tumor incidence of each group was calculated based on the tumor volume greater than or equal to 62.5 mm^, which is determined as positive for tumor occurrence. […] Mice determined to be negative for tumor development were confirmed by dissection, and no solid tumor was found in the axilla. […]

B1: PEG-mIFN-α4: deglycosylated recombinant mouse interferon α4 modified with 40 kD Y-type polyethylene glycol succinimide ester (YPEG-NHS); SEQ ID NO: 6 (protein)
chain: CDLPHTYNLGNKRALTVLEEMRRLPPLSCLKDRKDFGFPLEKVDNQQIQKAQAILVLRDLTQQILNLFTSKDLSATWNATLLDSFCNDLHQQLNDLKACVMQEPPLTQEDSLLAVRTYFHRITVYLRKKKHSLCAWEVIRAEVWRALSSSTNLLARLSEEKE
modifications: 40 kD Y-type PEG; deglycosylated; peginterferon murine alpha 4
Median survival period (time after tumor inoculation, day) (by day 151): 38.0 days
tumor incidence (day 151 after tumor inoculation, tumor volume ≥62.5 positive): 100.0%
